Test results as given in the supplement of paper PMC5998384.

How the values were obtained:
HeLa Kyoto [1] = test: solubility in G1/S (NP-40 vs SDS abundance) (log2 ratio); higher = more soluble; details: cell cycle stage: G1/S
HeLa Kyoto [2] = test: melting temperature (median over replicates), in situ; higher = more thermally stable
HeLa Kyoto [3] = test: solubility change mitosis vs G1/S (difference of NP-40 vs SDS log2 ratios) (log2 ratio difference); higher = more soluble in mitosis
HeLa Kyoto [4] = test: thermal stability score vs G1/S (z-score of summed log2 fold changes over temperatures); higher = more thermally stable than in G1/S
[5] = cell cycle stage: early G1 (4.5 h after nocodazole release)
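Throughout, for melting temperature (median over replicates), in situ: HeLa Kyoto cells synchronized by double thymidine or nocodazole block, proteins quantified by TMT10plex mass spectrometry, three independent biological replicates.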
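Throughout, for solubility change mitosis vs G1/S (difference of NP-40 vs SDS log2 ratios): synchronized HeLa Kyoto cells (double thymidine block for G1/S, nocodazole release for mitosis), protein amounts in NP-40 versus SDS lysates quantified by mass spectrometry, three biological replicates.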
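Throughout, for solubility in G1/S (NP-40 vs SDS abundance): HeLa Kyoto cells arrested at G1/S by double thymidine block, proteins quantified by TMT10plex mass spectrometry in mild NP-40 versus SDS extracts, three biological replicates.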
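Throughout, for thermal stability score vs G1/S (z-score of summed log2 fold changes over temperatures): synchronized HeLa Kyoto cells, proteins quantified by TMT10plex mass spectrometry, three biological replicates, mitosis taken 0.5 h after nocodazole release, G1/S directly after double thymidine block.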

Sequence: MSGVRAVRISIESACEKQVHEVGLDGTETYLPPLSMSQNLARLAQRIDFSQGSGSEEEEAAGTEGDAQEWPGAGSSADQDDEEGVVKFQPSLWPWDSVRNNLRSALTEMCVLYDVLSIVRDKKFMTLDPVSQDALPPKQNPQTLQLISKKKSLAGAAQILLKGAERLTKSVTENQENKLQRDFNSELLRLRQHWKLRKVGDKILGDLSYRSAGSLFPHHGTFEVIKNTDLDLDKKIPEDYCPLDVQIPSDLEGSAYIKVSIQKQAPDIGDLGTVNLFKRPLPKSKPGSPHWQTKLEAAQNVLLCKEIFAQLSREAVQIKSQVPHIVVKNQIISQPFPSLQLSISLCHSSNDKKSQKFATEKQCPEDHLYVLEHNLHLLIREFHKQTLSSIMMPHPASAPFGHKRMRLSGPQAFDKNEINSLQSSEGLLEKIIKQAKHIFLRSRAAATIDSLASRIEDPQIQAHWSNINDVYESSVKVLITSQGYEQICKSIQLQLNIGVEQIRVVHRDGRVITLSYQEQELQDFLLSQMSQHQVHAVQQLAKVMGWQVLSFSNHVGLGPIESIGNASAITVASPSGDYAISVRNGPESGSKIMVQFPRNQCKDLPKSDVLQDNKWSHLRGPFKEVQWNKMEGRNFVYKMELLMSALSPCLL [MED17]
- solubility in G1/S (log2) (HeLa Kyoto [1]): 0.0389
- melting temperature (HeLa Kyoto [2]; cell cycle stage: G1/S): 50.4 °C
- melting temperature (HeLa Kyoto [2]; cell cycle stage: mitosis): 49.7 °C
- solubility change mitosis (log2) (HeLa Kyoto [3]): -0.0898
- thermal stability score (HeLa Kyoto [4]; [5]): 0.0203
- thermal stability score (HeLa Kyoto [4]; cell cycle stage: mitosis): 0.644

Sequence: MSHPDYRMNLRPLGTPRGVSAVAGPHDIGASPGDKKSKNRSTRGKKKSIFETYMSKEDVSEGLKRGTLIQGVLRINPKKFHEAFIPSPDGDRDIFIDGVVARNRALNGDLVVVKLLPEEHWKVVKPESNDKETEAAYESDIPEELCGHHLPQQSLKSYNDSPDVIVEAQFDGSDSEDGHGITQNVLVDGVKKLSVCVSEKGREDGDAPVTKDETTCISQDTRALSEKSLQRSAKVVYILEKKHSRAATGFLKLLADKNSELFRKYALFSPSDHRVPRIYVPLKDCPQDFVARPKDYANTLFICRIVDWKEDCNFALGQLAKSLGQAGEIEPETEGILTEYGVDFSDFSSEVLECLPQGLPWTIPPEEFSKRRDLRKDCIFTIDPSTARDLDDALSCKPLADGNFKVGVHIADVSYFVPEGSDLDKVAAERATSVYLVQKVVPMLPRLLCEELCSLNPMSDKLTFSVIWTLTPEGKILDEWFGRTIIRSCTKLSYEHAQSMIESPTEKIPAKELPPISPEHSSEEVHQAVLNLHGIAKQLRQQRFVDGALRLDQLKLAFTLDHETGLPQGCHIYEYRESNKLVEEFMLLANMAVAHKIHRAFPEQALLRRHPPPQTRMLSDLVEFCDQMGLPVDFSSAGALNKSLTQTFGDDKYSLARKEVLTNMCSRPMQMALYFCSGLLQDPAQFRHYALNVPLYTHFTSPIRRFADVLVHRLLAAALGYRERLDMAPDTLQKQADHCNDRRMASKRVQELSTSLFFAVLVKESGPLESEAMVMGILKQAFDVLVLRYGVQKRIYCNALALRSHHFQKVGKKPELTLVWEPEDMEQEPAQQVITIFSLVEVVLQAESTALKYSAILKRPGTQGHLGPEKEEEESDGEPEDSSTS [DIS3L2]
- solubility in G1/S (log2) (HeLa Kyoto [1]): -0.0925
- melting temperature (HeLa Kyoto [2]; cell cycle stage: G1/S): 50.6 °C
- melting temperature (HeLa Kyoto [2]; cell cycle stage: mitosis): 50.5 °C
- solubility change mitosis (log2) (HeLa Kyoto [3]): -0.1
- thermal stability score (HeLa Kyoto [4]; [5]): -0.153
- thermal stability score (HeLa Kyoto [4]; cell cycle stage: mitosis): -0.198

Sequence: MSIMSYNGGAVMAMKGKNCVAIAADRRFGIQAQMVTTDFQKIFPMGDRLYIGLAGLATDVQTVAQRLKFRLNLYELKEGRQIKPYTLMSMVANLLYEKRFGPYYTEPVIAGLDPKTFKPFICSLDLIGCPMVTDDFVVSGTCAEQMYGMCESLWEPNMDPDHLFETISQAMLNAVDRDAVSGMGVIVHIIEKDKITTRTLKARMD [PSMB3]
- solubility in G1/S (log2) (HeLa Kyoto [1]): 0.275
- melting temperature (HeLa Kyoto [2]; cell cycle stage: G1/S): 59.9 °C
- melting temperature (HeLa Kyoto [2]; cell cycle stage: mitosis): 62.6 °C
- solubility change mitosis (log2) (HeLa Kyoto [3]): -0.241
- thermal stability score (HeLa Kyoto [4]; [5]): -1.89
- thermal stability score (HeLa Kyoto [4]; cell cycle stage: mitosis): -1.25

Sequence: MSKGPGPGGSAASSAPPAATAQVLQAQPEKPQHYTYLKEFRTEQCPLFVQHKCTQHRPYTCFHWHFVNQRRRRSIRRRDGTFNYSPDVYCTKYDEATGLCPEGDECPFLHRTTGDTERRYHLRYYKTGICIHETDSKGNCTKNGLHCAFAHGPHDLRSPVYDIRELQAMEALQNGQTTVEGSIEGQSAGAASHAMIEKILSEEPRWQETAYVLGNYKTEPCKKPPRLCRQGYACPYYHNSKDRRRSPRKHKYRSSPCPNVKHGDEWGDPGKCENGDACQYCHTRTEQQFHPEIYKSTKCNDMQQSGSCPRGPFCAFAHVEQPPLSDDLQPSSAVSSPTQPGPVLYMPSAAGDSVPVSPSSPHAPDLSALLCRNSSLGSPSNLCGSPPGSIRKPPNLEGIVFPGESGLAPGSYKKAPGFEREDQVGAEYLKNFKCQAKLKPHSLEPRSQEQPLLQPKQDMLGILPAGSPLTSSISSSITSSLAATPPSPVGTSSVPGMNANALPFYPTSDTVESVIESALDDLDLNEFGVAALEKTFDNSTVPHPGSITIGGSLLQSSAPVNIPGSLGSSASFHSASPSPPVSLSSHFLQQPQGHLSQSENTFLGTSASHGSLGLNGMNSSIWEHFASGSFSPGTSPAFLSGPGAAELARLRQELDEANSTIKQWEESWKQAKQACDAWKKEAEEAGERASAAGAECELAREQRDALEVQVKKLQEELERLHAGPEPQALPAFSDLEALSLSTLYSLQKQLRAHLEQVDKAVFHMQSVKCLKCQEQKRAVLPCQHAALCELCAEGSECPICQPGRAHTLQS [UNK]
- solubility in G1/S (log2) (HeLa Kyoto [1]): 0.0454
- melting temperature (HeLa Kyoto [2]; cell cycle stage: G1/S): 51 °C
- melting temperature (HeLa Kyoto [2]; cell cycle stage: mitosis): 50.9 °C
- solubility change mitosis (log2) (HeLa Kyoto [3]): -0.0731
- thermal stability score (HeLa Kyoto [4]; [5]): 0.349
- thermal stability score (HeLa Kyoto [4]; cell cycle stage: mitosis): 1.68

Sequence: MSKRHRLDLGEDYPSGKKRAGTDGKDRDRDRDREDRSKDRDRERDRGDREREREKEKEKELRASTNAMLISAGLPPLKASHSAHSTHSAHSTHSTHSAHSTHAGHAGHTSLPQCINPFTNLPHTPRYYDILKKRLQLPVWEYKDRFTDILVRHQSFVLVGETGSGKTTQIPQWCVEYMRSLPGPKRGVACTQPRRVAAMSVAQRVADEMDVMLGQEVGYSIRFEDCSSAKTILKYMTDGMLLREAMNDPLLERYGVIILDEAHERTLATDILMGVLKEVVRQRSDLKVIVMSATLDAGKFQIYFDNCPLLTIPGRTHPVEIFYTPEPERDYLEAAIRTVIQIHMCEEEEGDLLLFLTGQEEIDEACKRIKREVDDLGPEVGDIKIIPLYSTLPPQQQQRIFEPPPPKKQNGAIGRKVVVSTNIAETSLTIDGVVFVIDPGFAKQKVYNPRIRVESLLVTAISKASAQQRAGRAGRTRPGKCFRLYTEKAYKTEMQDNTYPEILRSNLGSVVLQLKKLGIDDLVHFDFMDPPAPETLMRALELLNYLAALNDDGDLTELGSMMAEFPLDPQLAKMVIASCDYNCSNEVLSITAMLSVPQCFVRPTEAKKAADEAKMRFAHIDGDHLTLLNVYHAFKQNHESVQWCYDNFINYRSLMSADNVRQQLSRIMDRFNLPRRSTDFTSRDYYINIRKALVTGYFMQVAHLERTGHYLTVKDNQVVQLHPSTVLDHKPEWVLYNEFVLTTKNYIRTCTDIKPEWLVKIAPQYYDMSNFPQCEAKRQLDRIIAKLQSKEYSQY [DHX15]
- solubility in G1/S (log2) (HeLa Kyoto [1]): -0.42
- melting temperature (HeLa Kyoto [2]; cell cycle stage: G1/S): 53.9 °C
- melting temperature (HeLa Kyoto [2]; cell cycle stage: mitosis): 53.7 °C
- solubility change mitosis (log2) (HeLa Kyoto [3]): 0.272
- thermal stability score (HeLa Kyoto [4]; [5]): 0.104
- thermal stability score (HeLa Kyoto [4]; cell cycle stage: mitosis): 1.61
